Reference: US20160222079A1 (GENOR BIOPHARMA, published 2016)
Each block holds one binder with its values, some of them ahead of it.

Target: T1, GLP-1 receptor (GLP-1R) on the surface of mouse beta pancreatic tumor cells β-TC-6 (mouse, UniProt O35659 22-463)
T1 construct: whole, on cells; Endogenous receptor of the mouse cell line
T1 sequence (looked up): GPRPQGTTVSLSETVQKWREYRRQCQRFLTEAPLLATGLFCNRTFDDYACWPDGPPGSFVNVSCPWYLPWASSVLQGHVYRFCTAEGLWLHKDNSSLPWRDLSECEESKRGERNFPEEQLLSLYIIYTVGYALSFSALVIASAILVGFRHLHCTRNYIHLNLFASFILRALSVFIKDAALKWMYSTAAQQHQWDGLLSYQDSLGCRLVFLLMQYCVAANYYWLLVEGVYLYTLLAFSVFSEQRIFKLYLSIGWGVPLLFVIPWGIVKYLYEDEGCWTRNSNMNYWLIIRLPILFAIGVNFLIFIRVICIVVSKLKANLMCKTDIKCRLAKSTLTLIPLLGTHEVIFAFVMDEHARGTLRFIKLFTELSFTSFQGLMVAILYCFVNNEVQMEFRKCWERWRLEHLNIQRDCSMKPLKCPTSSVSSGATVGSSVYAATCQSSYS
Test: cell ELISA on fixed β-TC-6 cells, anti-human IgG-HRP detection

binding result: binds
B1: GLP-1-Fc-1 fusion protein (Fc fusion)
chain: HGEGTFTSDVSSYLEEQAAKEFIAWLVKGGGGGGGSGGGGSGGGGSVECPPCPAPPVAGPSVFLFPPKPKDTLMISRTPEVTCVVVDVSHEDPEVQFNWYVDGVEVHNAKTKPREEQFNSTFRVVSVLTVVHQDWLNGKEYKCAVSNKGLPAPIEKTISKTKGQPREPQVYTLPPSREEMTKNQVSLTCLVKGFYPSDIAVEWESNGQPENNYKTTPPMLDSDGSFFLYSKLTVDKSRWQQGNVFSCSVMHEALHNHYTQKSLSLSPGK
notes: also called GLP-1-Fc (IgG2)

binding result: binds
B2: GLP-1-Fc-3 fusion protein (Fc fusion)
chain: HGEGTFTSDVSSYLEEQAAKEFIAWLVKGGGGGGGSGGGGSGGGGSVECPPCPAPPVAGPSVFLFPPKPKDTLMISRTPEVTCVVVDVSHEDPEVQFNWYVDGVEVHNAKTKPREEQFNSTFRVVSVLTVVHQDWLNGKEYKCKVSNKGLPAPIEKTISKTKGQPREPQVYTLPPSREEMTKNQVSLTCLVKGFYPSDIAVEWESNGQPENNYKTTPPMLDSDGSFFLYSKLTVDKSRWQQGNVFSCSVMHEALHNHYTQKSLSLSPG
notes: also called GLP-1-Fc (IgG2)

binding result: binds
B3: GLP-1-Fc-2 fusion protein (Fc fusion)
chain: HGEGTFTSDVSSYLEEQAAKEFIAWLVKGGGGGGGSGGGGSGGGGSERKCCVECPPCPAPPVAGPSVFLFPPKPKDTLMISRTPEVTCVVVDVSHEDPEVQFNWYVDGVEVHNAKTKPREEQFNSTFRVVSVLTVVHQDWLNGKEYKCKVSNKGLPAPIEKTISKTKGQPREPQVYTLPPSREEMTKNQVSLTCLVKGFYPSDIAVEWESNGQPENNYKTTPPMLDSDGSFFLYSKLTVDKSRWQQGNVFSCSVMHEALHNHYTQKSLSLSPG
notes: also called GLP-1-Fc (IgG2)
